Results: patent US20260077071A1, “Targeted Delivery of Theranostic Agents” (Peter MacCallum Cancer Institute, priority 2022, published 2026)
Read-outs that look alike come from different tables or passages of the source. Square brackets hold non-standard residues; d marks the D form. Peptide text beside a SMILES is read from it. * marks the point of attachment. DOTA = O=C(O)CN1CCN(CC(=O)O)CCN(CC(=O)*)CCN(CC(=O)O)CC1; Phe(3,4,5-F3) = N[C@@H](Cc1cc(F)c(F)c(F)c1)C(=O)O; NMe1Nal = CN[C@@H](Cc1cccc2ccccc12)C(=O)O; Phe(4-NH2) = Nc1ccc(C[C@H](N)C(=O)O)cc1; 1Nal = N[C@@H](Cc1cccc2ccccc12)C(=O)O; 2Nal = N[C@@H](Cc1ccc2ccccc2c1)C(=O)O; NMeF = CN[C@@H](Cc1ccccc1)C(=O)O; NMeNle = CCCC[C@H](NC)C(=O)O; Sar = CNCC(=O)O

Key:
in vitro = in vitro ADME, mouse; settings: for remaining at 1.5 h: mouse, pH 7.3
Protocol: Drug detoxification, drug metabolism and metabolic stability are important determinants of the efficacy of theranostic candidates in clinical settings. To assess metabolic stability, radiolabelled Compounds [^68Ga]Ga-1-4 and comparative example-2 ([^68Ga]Ga-Cmp ex-2) were challenged by incubation in either human serum, mouse liver or kidney homogenates and HEPES buffer as a negative control. Duplicate samples (750-900 pmol/mL) were incubated at 37° C. with pooled human serum, 15% mouse kidney homogenate, 30% mouse liver homogenate or 20 mM HEPES, pH 7.3 (control). Human blood was collected and serum prepared using SSTII advance vacutainer tubes according to the manufacturer's instructions (Becton Dickinson, New Jersey, USA). Mouse kidney and liver homogenates were prepared by washing the tissues in ice-cold HEPES buffer, pH 7.3 and placing them in pre-chilled tubes containing HEPES buffer and 2.38 mm metal beads (Mo-Bio Laboratories, Hilden, Germany). Tissues were homogenised using the PowerLyzer24 homogeniser (Qiagen, Hilden, Germany) according to the manufacturer's instructions. Ga-68 radiolabelled peptides were incubated with the various lysates at 37° C. and samples were collected at 15, 30, 60 and 90 min. Reactions were terminated by addition of an equal volume of acetonitrile and centrifugation for 2 min at 15,000 rpm. Supernatants were diluted in water before being analysed by HPLC using a Kinetex C18 XB column (5 μm 4.6×150 mm), eluted at 1.5 mL/min of gradient 20-60% MeCN in water containing 0.1% formic acid over 7 min.

[1] = LogD7.4 determination (PBS pH 7.4 / n-octanol); type: physicochemical; settings: PBS/Octanol mix, n = 5
Protocol: The distribution coefficients (LogD7.4) of radiolabelled compounds [^68Ga]Ga-1-4, and [^68Ga]Ga-Cmp ex-2 were assayed by measuring radioactivity distribution in the aqueous phase (phosphate buffer pH7.4) and the organic phase (n-octanol). To determine the distribution coefficient (LogD), Ga-68 radiolabelled compounds were diluted to 20 pmol/mL in PBS (pH 7.4) and an equal volume of n-octanol was added. The mixture was vortexed vigorously for 10 cycles of 1 min at room temperature before being centrifuged for 6 min to separate the two phases. Equal volumes from each phase were aliquoted into individual counting tubes and analysed for 1 min using the Perkin Elmer 2480 Wizard2™ gamma counter (PerkinElmer, Massachusetts, USA). The distribution coefficient was calculated using the following equation [formula]

[2] = biological target: T1, human full-length CCK-2 receptor (Homo sapiens, UniProt P32239); test: Competitive ligand binding against [^177Lu]Lu-DOTA-CP04 in A431-CCK-2R cells; settings: for IC50: read-out: IC50
T1 construct: stably transfected to over-express the human full-length CCK-2 receptor (A431-CCK-2R); expressed in transfected cells
T1 sequence (P32239 1-447): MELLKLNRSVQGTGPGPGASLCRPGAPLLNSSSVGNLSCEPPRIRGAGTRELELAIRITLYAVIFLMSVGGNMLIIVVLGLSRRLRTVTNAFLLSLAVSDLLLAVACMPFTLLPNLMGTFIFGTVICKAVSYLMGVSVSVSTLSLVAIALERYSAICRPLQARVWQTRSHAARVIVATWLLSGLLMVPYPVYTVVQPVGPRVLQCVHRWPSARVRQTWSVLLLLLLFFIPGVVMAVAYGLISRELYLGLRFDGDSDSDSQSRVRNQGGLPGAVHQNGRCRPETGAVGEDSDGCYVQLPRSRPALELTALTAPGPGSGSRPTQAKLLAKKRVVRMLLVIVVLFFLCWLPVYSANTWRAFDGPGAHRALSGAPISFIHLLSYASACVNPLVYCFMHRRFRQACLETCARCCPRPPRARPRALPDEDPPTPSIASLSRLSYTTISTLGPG
Protocol: CCK-2 receptor binding experiments were conducted using A431 (human epidermoid carcinoma) cells stably transfected to over-express the human full-length CCK-2 receptor (A431-CCK-2R). As a negative control, A431 cells stably transfected with an empty vector were analysed simultaneously (A431-EV). A431 cells were maintained in DMEM (Gibco, Australia) media supplemented with 10% foetal calf serum and 250 μg/mL G418 as described previously (Aloj L, et al., J Nucl Med., 2004, Mar; 45(3), 485-94). The affinity of peptides for the CCK-2R was evaluated using competitive binding assays against [^177Lu]Lu-DOTA-CP04 in A431-CCK-2R cells. Briefly, 48 h before the experiment cells were plated at a density of 650,000 cells per well in 6 well plates. On the day of the experiment the peptides were diluted in DMEM supplemented with 1% foetal calf serum to at least 7 different concentrations (0-400 nM) and approximately 50,000 cpm of [^177Lu]Lu-DOTA-CP04 was added to each dilution. Cells were washed twice in ice-cold binding buffer (DMEM supplemented with 1% foetal calf serum) and resuspended in 1.5 mL of the pre-prepared compound mix before being incubated at 37° C. for 1 h. Post-incubation the media was removed and kept for analysis (unbound fraction) and the cells were washed twice in ice-cold binding buffer, which was pooled with the unbound fraction. Finally, 1 M NaOH was added to the cells and allowed to incubate for 5 min before lysates were collected (bound fraction). A small volume of lysate was kept aside to determine protein concentration using the Pierce® BCA protein assay kit (Thermo Fisher, Australia). All samples were analysed using the Perkin Elmer 2480 Wizard2™ gamma counter (PerkinElmer, Massachusetts, USA) and were normalised according to protein concentration. Half-maximal inhibitory concentrations (IC50) were determined using nonlinear regression calculated using GraphPad Prism Software (GraphPad Software, California, USA).
The compounds were evaluated for their ability to disrupt the binding between CCK-2 receptor (CCK-2R) and [^177Lu]Lu-DOTA-CP04 using the methodology described above and compared to comparative example-2 (FIG. 2; Table 5).

[3] = substituted-phenylalanine peptides based on Cmp ex-1 (Table 3)
[4] = modified peptides based on Peptide C (Table 4)

Row | Structure (SMILES) | metabolism in kidney homogenates (in vitro) | metabolism in liver homogenates (in vitro) | remaining at 1.5 h (in vitro; tissue homogenate) [%] | LogD7.4 [1] | further results
1 | CCCC[C@@H](C(=O)N[C@@H](CC(=O)O)C(=O)N[C@@H](Cc1cccc2ccccc12)C(N)=O)N(C)C(=O)[C@H](Cc1c[nH]c2ccccc12)NC(=O)CN(C)C(=O)[C@H](Cc1ccc(O)cc1)NC(=O)[C@H](C)NC(=O)[C@@H](CCC(=O)O)NC(=O)[C@@H](CCC(=O)O)NC(=O)[C@@H](CCC(=O)O)NC(=O)[C@@H](C)NC(=O)[C@@H](CCC(=O)O)NC(=O)[C@@H](CCC(=O)O)NC(=O)CN1CCN(CC(=O)O)CCN(CC(=O)O)CCN(CC(=O)O)CC1 [[^68Ga]Ga-1, metal not drawn] ({DOTA}-[dE][dE][dA][dE][dE][dE]AY[Sar]W[NMeNle]D[1Nal]-NH2) | significant metabolism | significant metabolism | 85 | −2.88 ± 0.09 | remaining at 1.5 h (in vitro; other tissue homogenate): 75%
2 | CCCC[C@@H](C(=O)N[C@@H](CC(=O)O)C(=O)N(C)[C@@H](Cc1ccccc1)C(N)=O)N(C)C(=O)[C@H](Cc1c[nH]c2ccccc12)NC(=O)CN(C)C(=O)[C@H](Cc1ccc(O)cc1)NC(=O)[C@H](C)NC(=O)[C@@H](CCC(=O)O)NC(=O)[C@@H](CCC(=O)O)NC(=O)[C@@H](CCC(=O)O)NC(=O)[C@@H](C)NC(=O)[C@@H](CCC(=O)O)NC(=O)[C@@H](CCC(=O)O)NC(=O)CN1CCN(CC(=O)O)CCN(CC(=O)O)CCN(CC(=O)O)CC1 [[^68Ga]Ga-2, metal not drawn] ({DOTA}-[dE][dE][dA][dE][dE][dE]AY[Sar]W[NMeNle]D[NMeF]-NH2) | no observable metabolites detected | no observable metabolites detected | – | −3.56 ± 0.01 | –
3 | CCCC[C@@H](C(=O)N[C@@H](CC(=O)O)C(=O)N[C@@H](Cc1cc(F)c(F)c(F)c1)C(N)=O)N(C)C(=O)[C@H](Cc1c[nH]c2ccccc12)NC(=O)CN(C)C(=O)[C@H](Cc1ccc(O)cc1)NC(=O)[C@H](C)NC(=O)[C@@H](CCC(=O)O)NC(=O)[C@@H](CCC(=O)O)NC(=O)[C@@H](CCC(=O)O)NC(=O)[C@@H](CCC(=O)O)NC(=O)[C@@H](CCC(=O)O)NC(=O)[C@H](N)CCC(=O)O [I] (H-[dE][dE][dE][dE][dE][dE]AY[Sar]W[NMeNle]D[Phe(3,4,5-F3)]-NH2) | – | – | – | – | IC50 [2, 3]: 260 pM
4 | CCCC[C@@H](C(=O)N[C@@H](CC(=O)O)C(=O)N[C@@H](Cc1ccccc1)C(N)=O)N(C)C(=O)[C@H](Cc1c[nH]c2ccccc12)NC(=O)CN(C)C(=O)[C@H](Cc1ccc(O)cc1)NC(=O)[C@H](C)NC(=O)[C@@H](CCC(=O)O)NC(=O)[C@@H](CCC(=O)O)NC(=O)[C@@H](CCC(=O)O)NC(=O)[C@@H](C)NC(=O)[C@@H](CCC(=O)O)NC(=O)[C@@H](CCC(=O)O)NC(=O)CN1CCN(CC(=O)O)CCN(CC(=O)O)CCN(CC(=O)O)CC1 [[^68Ga]Ga-3, metal not drawn] ({DOTA}-[dE][dE][dA][dE][dE][dE]AY[Sar]W[NMeNle]DF-NH2) | significant metabolism | significant metabolism | ~35 | −4.06 ± 0.14 | remaining at 1.5 h (in vitro; other tissue homogenate): 20%
5 | CCCC[C@@H](C(=O)N[C@@H](CC(=O)O)C(=O)N[C@@H](Cc1ccc2ccccc2c1)C(N)=O)N(C)C(=O)[C@H](Cc1c[nH]c2ccccc12)NC(=O)CN(C)C(=O)[C@H](Cc1ccc(O)cc1)NC(=O)[C@H](C)NC(=O)[C@@H](CCC(=O)O)NC(=O)[C@@H](CCC(=O)O)NC(=O)[C@@H](CCC(=O)O)NC(=O)[C@@H](CCC(=O)O)NC(=O)[C@@H](CCC(=O)O)NC(=O)[C@H](N)CCC(=O)O [L] (H-[dE][dE][dE][dE][dE][dE]AY[Sar]W[NMeNle]D[2Nal]-NH2; N-terminus assumed) | – | – | – | – | IC50 [2, 3]: 600 pM
6 | CCCC[C@@H](C(=O)N[C@@H](CC(=O)O)C(=O)N(C)[C@@H](Cc1cccc2ccccc12)C(N)=O)N(C)C(=O)[C@H](Cc1c[nH]c2ccccc12)NC(=O)CN(C)C(=O)[C@H](Cc1ccc(O)cc1)NC(=O)[C@H](C)NC(=O)[C@@H](CCC(=O)O)NC(=O)[C@@H](CCC(=O)O)NC(=O)[C@@H](CCC(=O)O)NC(=O)[C@@H](C)NC(=O)[C@@H](CCC(=O)O)NC(=O)[C@@H](CCC(=O)O)NC(=O)CN1CCN(CC(=O)O)CCN(CC(=O)O)CCN(CC(=O)O)CC1 [Compound 4] ({DOTA}-[dE][dE][dA][dE][dE][dE]AY[Sar]W[NMeNle]D[NMe1Nal]-NH2) | – | – | 100 | – | –
7 | CCCC[C@@H](C(=O)N[C@@H](CC(=O)O)C(=O)N[C@@H](Cc1cc(F)c(F)c(F)c1)C(N)=O)N(C)C(=O)[C@H](Cc1c[nH]c2ccccc12)NC(=O)CN(C)C(=O)[C@H](Cc1ccc(O)cc1)NC(=O)[C@H](C)NC(=O)[C@@H](CCC(=O)O)NC(=O)[C@@H](CCC(=O)O)NC(=O)[C@@H](CCC(=O)O)NC(=O)[C@@H](C)NC(=O)[C@@H](CCC(=O)O)NC(=O)[C@H](N)CCC(=O)O [N] (H-[dE][dE][dA][dE][dE][dE]AY[Sar]W[NMeNle]D[Phe(3,4,5-F3)]-NH2; N-terminus assumed) | – | – | – | – | IC50 [2, 4]: 444 ± 32 pM
8 | CCCC[C@@H](C(=O)N[C@@H](CC(=O)O)C(=O)N[C@@H](Cc1ccc(N)cc1)C(N)=O)N(C)C(=O)[C@H](Cc1c[nH]c2ccccc12)NC(=O)CN(C)C(=O)[C@H](Cc1ccc(O)cc1)NC(=O)[C@H](C)NC(=O)[C@@H](CCC(=O)O)NC(=O)[C@@H](CCC(=O)O)NC(=O)[C@@H](CCC(=O)O)NC(=O)[C@@H](C)NC(=O)[C@@H](CCC(=O)O)NC(=O)[C@H](N)CCC(=O)O [M] (H-[dE][dE][dA][dE][dE][dE]AY[Sar]W[NMeNle]D[Phe(4-NH2)]-NH2; N-terminus assumed) | – | – | – | – | IC50 [2, 4]: 741 ± 64 pM
9 | CCCC[C@@H](C(=O)N[C@@H](CC(=O)O)C(=O)N[C@@H](Cc1cccc2ccccc12)C(N)=O)N(C)C(=O)[C@H](Cc1c[nH]c2ccccc12)NC(=O)CN(C)C(=O)[C@H](Cc1ccc(O)cc1)NC(=O)[C@H](C)NC(=O)[C@@H](CCC(=O)O)NC(=O)[C@@H](CCC(=O)O)NC(=O)[C@@H](CCC(=O)O)NC(=O)[C@@H](CCC(=O)O)NC(=O)[C@@H](CCC(=O)O)NC(=O)[C@@H](C)N [Peptide A] (H-[dA][dE][dE][dE][dE][dE]AY[Sar]W[NMeNle]D[1Nal]-NH2) | – | – | – | – | loss of binding affinity / activity ([2]; D-Ala analogue versus baseline comparative example-1): greater than 10 fold
